Data from a protein production outcome set (Wang et al. 2014).

Test: label from the status in PepcDB records
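Further: failed if final PepcDB status was selected cloned or expressed and not failed if soluble or beyond.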

## MENNGEMNAQPELSGIIDITKTYMYEKLWNICAGPLCVLPKPGEKVYYFPQGHIELIENSTRDELDHIRPIFDLPSKLRCRVVAIDRKVDKNTDEVYAQISLMPDTTDMSQPISTQNLVAKDLYGQEWSFKHVFRGTPQRHMFTSGGGWSVFATTKRLIVGDIFVLLRGENGELRFGIRRAKHQQGHIPSSVISANCMQHGVIASVVNAFKTKCMFNVVYKPSYDKFVDAMNNNYIVGSRFRMQFEGKDFSEKRYDGTIIGVNDMSPHWKDSEWRSLKVQWDELSPFLRPNQVSPWDIEHLIPSSDISQSSATLSNLWTCQEIGQRSMNSPISVPEFSYPNAIEDSKFLSGLLLNHSLLAIPNENYNSDQMIQPRKEDITTEATTSCLLFGVDLTKVHMQGVAISRAVDLTAMHGYNQLIQKLEELFDLKDELRTRNQWEIVFTNNEGAEMLVGDDPWPEFCNMAKRIFICSKEEIKKMKLKNKFFQPESKALTSSDVPPNVTDN
  protein production: failed

## MENNPNNNQASLERNELHNTIWKVANELRGSVDGWDFKQYVLGILFYRYISENMTHYINKEERKRDPSFDYAKLSDEKAERGRKHLIEQKGFFIPPSALFCNALKNACHNEDLNVTLQNIFNEIEKSSLGTPSEENVKGLFADLDVNSNKLGSSHQNRVEKLTKILEAIGGMQLGDYLKSGIDVFGDAYEYLMAMYASNAGKSGGEFFTPQEVSELLAKITLHGQESVNKVYDPCCGSGSLLLQFSKVLGDKNVSKGYFGQEINLTTYNLCRINMFLHDINYSKFHIAHGDTLLDPKHEDDEPFDAIVSNPPYSTKWVGDSNPILINDERFSPAGVLAPKNAADLAFTMHMLSYLSNSGTAAIVEFPGVLYRGNAEAKIREYLVKENVIDCVIALPDNLFFGTSIATCILVLKKNKQDDTTLFIDASKEFVKEGKKNKLKERNREKILQTYIERKEIKHFCALANIEKIKENDYNLSVNRYVEQEDTKEAIDIKALNSEIAQIVEKQSALRNRLESIIKELEGGQNA
  protein production: failed

## MEPGLDGGYLLLGVDWAINDKGDTVYRPVGLPDPDKVQRDLASQCASMLNVALRPEMQLEQVGGKTLLVVYVPEADVTHKPIYKKATGLPGGAYRRIGSSDQRCVLEHHHHHH
  protein production: failed

## MEPKVTIHRYYSRQAKYEGAVEADLELCIKHCGGDVVRIELVNRLHGIQLQRKLRRLLLLMFLSIAYFVGTCGFDNRTISFLQPRILYPLITCASVAILLIRSTLNLVQAERLFYSWDMALQMETVRSFGRESVLCVQRGHIEDIVLNEVIEDLDVKYMLILRTKGSQFKKRPIIPLFNSQSPSIECLQHTYHVLHKYWLNSTKDRSEESYSKDKQSLVNS
  protein production: failed

## MEQEILALFEKILSRKVGFNDELIESDILDSILAVDLVLEVQDVYGCVIPPTEVATVLKTPADLARYIEENRG
  protein production: failed

## MEQFSFIACMPDIPGALHRAAEIITRYEGNINRIQYDRRIDLHTVFFEVTALPQAYEKIREELEKIGYLQTSLQPVAFVKFHVYLPNCPGALFDLLNYITSSKSSITFLDFDDRGQHPERLVVGLHIEDPNMIDALLNQLKSRYRLDILEYDTTGEKLDDTVFYLRLAQKLRSFIGSAEDDFLMRFLQDINHITQELSNLQKDPIEVFENILKVGDYLNRTSGDNFYADVQRVRIKDDIELFCFQPPCGGNIYLFDTSSERVMIDTGYGIYFQDIVNMLQYYGLGDLSRLKRIYITHADADHCGAAGCFPAPSYLNRETFLITRETSRAYGSSNQDCILEEVYTKIINLFSRFTPPSNTVLFPEVSLSDKIIEKRGVFPIIARFRIGDLKFEVLEGMGGHMHGEVFYFCPEEGLLFPEDAVINFKSLSPDRTAYNVLADYLMTSVNVDSKLAREERQSLLSLISEIDEQLARKNKKCLICCGHGSMSLLDNGKLIEYKGSERYVAGQKCISQENL
  protein production: failed

## MEQGMSKRILVPVAHGSEEMETVIIVDTLVRAGFQVTMAAVGDKLQVQGSRGVWLTAEQTLEACSAEAFDALALPGGVGGAQAFADSTALLALIDAFSQQGKLVAAICATPALVFAKQQKFVGARMTCHPNFFDHIPSERLSRQRVCYYATQHLLTSQGPGTALEFALAMIALLAGVELAQHVAAPMVLHPQQLTELSGFIDAQS
  protein production: not failed

## MEQLAKLSMTDRLTGLLNRGTWENLVDAEYERFRRYGQATSLVMFDIDHFKPVNDTYGHLAGDEVIRHTADVTRNNIRQSDSAGRYGGEEFGIILPETDAESARVICERIREAIEKSTVSTSAGDIQYTVSMGIAQLTETPENYMQWMQKADEALYKAKESGRNKVVVSLEHHHHHH
  protein production: not failed

## MEQMIFIRKDDKVEVFSEEEELKGSYYRAILEDNPTKSGHNKLKVRYLTQLNEHRLAPLTEFVDQRFIRPVPSEDVNDGVVFVEGLMVDAYLKDGWWTGVVVKTMEDEKFLVYFDCPPDIIQFEKKKLRVHLDWTGFKWIRPDNKELVKSVFSCGTMVELRFDCAWIPVIVIKELEKDKRFLVKYWNKSYSCRESKNLIVDSLRLRPMQPPLSVGKYELLDHVEAFSGFEWRQGVVRGIVFEGRYMVSFGATKEASQFNHSDIRPPMEWEDGVWHKRTKPKRQKETSLDGNRNVQTKEPPGNEMADDVKKESGLPITLGVTATKNKTQGKVSPVPMKNGFGNESTREKMPEEPKIKYYTRKRKRGGLKLNSYINKTVLSSDRTPNVVKNSASNAEENHAKHTIMVLPFAKKSPVWKTYESLEVFKSVSHSLHFSPLFETKQDFREGYAIGMMVTYFGLLEKFKDLEADVPVSQLNSLKDSFSELEKHGFNVTTPLSRIDKLLALKDRQLYIMEELKGFDKEMTNEFSKAKQEFDDMEQKILEVKHKIIELQRQEAALKEQKEAEKEQKDAAWKKICQMESCAKDLNVELEDVEFEFETILSAPW
  protein production: failed

## MEQNSGTSSASGRALFPLYAITFIGTLGFGIILTFLVFLVTDYGGNALVYGILASTYPAFQLIGAPVLGRWSDLYGRKKILLLSQIGTMLAWIIFFAALFFPVIPLIEVRSDLLGTFTITLPLLILFLARALDGATGGNVSVANAYLADLTSEEERNKNYGRMSVASNLGYVFGPAIAGVLGTTAYGEILPVSAALVISIIGTLIVLFLLPDSRPCAIEEYPESTGIRKILGQEQKECYQVEAGSKITFREVFKLEYIPFMLVVYFLIFLGFNIYYTAFPIFAVVALEWSPAELGIYFSVISALMAFVQGPVLAKLARRYRESIMVVGGGFILGLQFILIVSGDYLLLYLAAVFFAFGNGIMWPSILSILSKFAGKKYQGSVQGFAMSASSLASIIGLLAGGFLYTQFGVIAFLIAAAIIYLVVFLSFRLLRIEKEKLIETEAAKTPV
  protein production: failed

## MEQPQEEAPEVREEEEKEEVAEAEGAPELNGGPQHALPSSSYTDLSRSSSPPSLLDQLQMGCDGASCGSLNMECRVCGDKASGFHYGVHACEGCKGFFRRTIRMKLEYEKCERSCKIQKKNRNKCQYCRFQKCLALGMSHNAIRFGRMPEAEKRKLVAGLTANEGSQYNPQVADLKAFSKHIYNAYLKNFNMTKKKARSILTGKASHTAPFVIHDIETLWQAEKGLVWKQLVNGLPPYKEISVHVFYRCQCTTVETVRELTEFAKSIPSFSSLFLNDQVTLLKYGVHEAIFAMLASIVNKDGLLVANGSGFVTREFLRSLRKPFSDIIEPKFEFAVKFNALELDDSDLALFIAAIILCGGE
  protein production: not failed

## MEQRRLASTEWVDIVNEENEVIAQASREQMRAQCLRHRATYIVVHDGMGKILVQRRTETKDFLPGMLDATAGGVVQADEQLLESARREAEEELGIAGVPFAEHGQFYFEDKNCRVWGALFSCVSHGPFALQEDEVSEVCWLTPEEITARCDEFTPDSLKALALWMKRNAKNEAVETETAE
  protein production: not failed

## MEQRVLGGRYLLKDKVGTGGMATVYRAQDQVLDRTVAVKIMLPQYAGDATFAARFKQEAQAAAGLSSPYIVGVYDWGKDGDTYYIVMEYLRGTDLKSGIKSHGALDPKKVAQIGSQISSALSVAHKHEIIHRDIKPQNIMVLPDGNIKVMDFGIARAKNSHLTQDNNVLGTAHYVSPEQTRGQDLGPTSDIYSLGVVMYECATGRVPFDGDDAISVALKQVNELPIPPSQINSGVDADLERIILKCMEKDPTNRFQTADELRQVLNSYLSGRAVNVSEPTRIIGAPGELGATKTRELSDQTRAMVRPVSGVSGQNTARSSVSGSTGSYEVEEPKSNKNKIIAAVVAAVAVIGIVVAFATGLFGGEQVTVPDVLGKDQQTAVELIKEAGLEVGTIDQSYNDDVDEGKVAEQTPNGNTKKTKGTKVNLVISKGPKPSEKVEVPKLVGLTKDQAEAALASVGLKGNASEEANEADEGQVFEQGTEAGKEVAKGTTISYKVSSGPDTTSVPDLTDMTEAQARNALDMAGFGVDVSYQENDSVTEGTVISWNPSGKQKPGATITVVIAKKSGKATVPGNLYGKSISAAVTALNNAGFYNIGFCDQNGNPVSGNEDATVTGVSPTGKQSTDSTITLTVALSGSGSGSGTSTGDDSGTTN
  protein production: failed

## MEQTEHIPPPGLVAQLRERSLLQTGDRFETLYGGRTNRVWRLHGPADDLVVKLYRRDFDNPLFGNDAQLEALCLDRLEGTGLAPQLRASGALGQEAWVVYDHAPGAPWRTDPAIAARMLANLHRRALDIPAPAGCNGSAAIRTHAEAILSRCDQPDRELLLKARPHTATIAPGPACLIHGDPVAGNLLVSGDQAILIDWQCPAIGDPAEDLAMFLSPAMQQVYRGAPLTAAEEQQFLSAYDNAGTVARYLSLKPWFHWRMAAYCRWRARNGAPDYAPAFELEHAALAAC
  protein production: failed

## MEQVIAQVIKRQQTEERPPDVLSQQTTKYEKRNSASLRKRKNSSKLYLKTDQNWMALREKLASNSIHDKGKYRQKRESNVTCFKSGVESGIQNSSVRSRETQVTFCDGTVPSQGLELANSKSTAEISSRNEIPRLTKVVALDCEFVGVGKLGKEHSLARVSIVNFKGEVLYDKYVLNDKEPVVDYRTSVSGIRPEHLRSSDAVSFEQAQRDVYSIIRNRILVGHAIHHDMHALLLSHPRKLIRDTSKWRGLRSHHLSRKTPSLRKLAQEILGIRIQDGEHDSVEDARATLMIYKRFAKEWEMELQTKKVKLARKKHR
  protein production: failed

## MEQVSKSHENKAEEQTEGVGLLERLFKLSQHKTTVKTELMAGLTTFVTMSYIMFLNPIIMSKTGMPFDGLFLATCLGAAIATILMGMYANWPVGLAPGMGLNAFFTFSVVGSMGYSWQIALGAVFLSGVIFVLMSVTRLREWMLDSIPMSLRLAMTAGVGLFLGFIGLRFTGIVVANPDNVVALADMTHFGFGQFGPEAPALGFLSFLLIAILSYRKVFGAVLIGIAVTTFIAFAMTWVLPTDFFVVAEAAKSFAPASGFVAYKGLLAIPEFSALEPILWKADIVGAFEVALIPVIVTFLFVNIFDTAGTLMGVAERANLQDENGKIEGLSKSLKADSISSVIGTAFGCPPVTSYVESAAGVAAGGRTGLTAVTIGLLFAAGVFFLPLAQMLPGFAVDGALIYVAMLMMSSLRGLDWDDLTEYAPAVCTTVMMAFTFSIANGIAFGFITYTVLKVGAGKSSQVSNGVWALTVLFVAKFIFLN
  protein production: failed

## MERAFMLNGLLVNLVSGLIVMFISAILYYRKPERKWLLIIIVIGMMSVVTAGIRMLVA
  protein production: failed
